Measurements from patent publication US20090142346A1 (Takeda / Millennium, published 2009).
Changes are numbered by the printed parent chain.

Experiments:
[1] = molecular target: T1, human nectin-2δ AN77-78PD (human, UniProt Q92692 32-538); experiment: FCM, CHO-K1 transient
T1 construct: transient on CHO-K1
T1 sequence: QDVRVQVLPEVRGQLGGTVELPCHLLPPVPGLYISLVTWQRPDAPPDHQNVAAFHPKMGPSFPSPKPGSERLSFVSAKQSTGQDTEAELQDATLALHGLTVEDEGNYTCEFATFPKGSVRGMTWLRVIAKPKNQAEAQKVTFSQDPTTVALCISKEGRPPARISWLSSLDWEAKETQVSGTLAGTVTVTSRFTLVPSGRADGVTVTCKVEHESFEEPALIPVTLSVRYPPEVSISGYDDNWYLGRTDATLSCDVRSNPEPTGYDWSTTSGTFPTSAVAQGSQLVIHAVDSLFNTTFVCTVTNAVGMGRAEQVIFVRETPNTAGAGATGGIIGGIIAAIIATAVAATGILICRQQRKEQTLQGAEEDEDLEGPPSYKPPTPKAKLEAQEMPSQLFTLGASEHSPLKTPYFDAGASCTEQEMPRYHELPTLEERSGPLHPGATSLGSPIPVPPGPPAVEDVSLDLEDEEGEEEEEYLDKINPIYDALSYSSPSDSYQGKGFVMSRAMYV
Procedure: (§1) After these cells were further washed twice with FCM buffer and then resuspended in 250 μL of FCM buffer, fluorescence intensity of the stained cells was measured by the flow cytometer MPL500 (BECKMAN COULTER). A ratio of the median value of fluorescence intensities of negative control plasmid pcDNA3.1(+)-transfected CHO-K1 cells to the median value of fluorescence intensities of each gene-transfected CHO-K1 cells was calculated for each antibody.
(§2) Then, after 200 μL of FCM buffer was added to each well and washed once by centrifugal operation, 50 μL of Alexa Fluor488 goat anti-human IgG (H+L) diluted in FCM buffer to 10 μg/mL was added thereto for suspension, and the mixture was then reacted on ice for an hour. Next, the cells were washed twice with FCM buffer and resuspended in 250 μL of FCM buffer.

[2] = molecular target: T2, human nectin-2δ H128R (human, UniProt Q92692 32-538); experiment: FCM, CHO-K1 transient
T2 construct: transient on CHO-K1
T2 sequence: T1 sequence with P46A, D47N, H97R
Procedure: as §1, §2

[3] = molecular target: T3, human nectin-2δ G113R (human, UniProt Q92692 32-538); experiment: FCM, CHO-K1 transient
T3 construct: transient on CHO-K1
T3 sequence: T1 sequence with P46A, D47N, G82R
Procedure: as §1, §2

[4] = molecular target: T4, human nectin-2δ protein (human, UniProt Q92692 32-538); experiment: FCM, CHO-K1 transient
T4 construct: full length, stably on CHO-K1 (43-2) or transiently on CHO-K1 from pEE12.4-Nectin-2δ
T4 sequence: T1 sequence with P46A, D47N
Procedure: (§3) A ratio of the median value of fluorescence intensities of negative control plasmid pcDNA3.1(+)-transfected CHO-K1 cells to the median value of fluorescence intensities of each gene-transfected CHO-K1 cells was calculated for each antibody.
(§4) Then, after 200 μL of FCM buffer was added to each well and washed once by centrifugal operation, 50 μL each of Alexa488-labeled secondary antibody diluted in FCM buffer to 10 μg/mL was added thereto for suspension, and the mixture was then reacted on ice for an hour. As secondary antibodies, Alexa Fluor488 goat anti-human IgG (H+L) was used for the human antibodies and Alexa Fluor488 goat anti-rabbit IgG (H+L) (Invitrogen) was used for the rabbit antibody, respectively. Next, the cells were washed twice with FCM buffer and then resuspended in 250 μL of FCM buffer.

[5] = molecular target: T5, cynomolgus monkey nectin-2 protein (cynomolgus monkey, UniProt Q92692 32-538 (human entry)); experiment: FCM, CHO-K1 transient
T5 construct: transient on CHO-K1; also called maNectin-2
T5 chain: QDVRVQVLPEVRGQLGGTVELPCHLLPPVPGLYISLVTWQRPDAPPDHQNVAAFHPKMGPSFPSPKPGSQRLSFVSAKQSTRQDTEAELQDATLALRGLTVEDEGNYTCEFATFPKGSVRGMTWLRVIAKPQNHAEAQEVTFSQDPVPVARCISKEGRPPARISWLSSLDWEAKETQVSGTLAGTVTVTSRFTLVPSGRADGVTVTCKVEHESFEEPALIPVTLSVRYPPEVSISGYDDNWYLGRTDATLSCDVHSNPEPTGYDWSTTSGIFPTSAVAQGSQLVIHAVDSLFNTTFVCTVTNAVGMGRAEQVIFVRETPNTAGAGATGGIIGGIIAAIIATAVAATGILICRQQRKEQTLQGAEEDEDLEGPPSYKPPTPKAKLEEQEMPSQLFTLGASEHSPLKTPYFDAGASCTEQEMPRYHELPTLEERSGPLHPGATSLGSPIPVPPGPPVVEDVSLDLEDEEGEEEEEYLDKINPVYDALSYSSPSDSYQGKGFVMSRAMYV
Procedure: as §3, §4

[6] = molecular target: T6, nectin-2 Ig2 domain-deficient protein (human, UniProt Q92692 32-538); experiment: FCM
T6 construct: also called delta-Ig2; Nectin-2ΔIg2
T6 sequence: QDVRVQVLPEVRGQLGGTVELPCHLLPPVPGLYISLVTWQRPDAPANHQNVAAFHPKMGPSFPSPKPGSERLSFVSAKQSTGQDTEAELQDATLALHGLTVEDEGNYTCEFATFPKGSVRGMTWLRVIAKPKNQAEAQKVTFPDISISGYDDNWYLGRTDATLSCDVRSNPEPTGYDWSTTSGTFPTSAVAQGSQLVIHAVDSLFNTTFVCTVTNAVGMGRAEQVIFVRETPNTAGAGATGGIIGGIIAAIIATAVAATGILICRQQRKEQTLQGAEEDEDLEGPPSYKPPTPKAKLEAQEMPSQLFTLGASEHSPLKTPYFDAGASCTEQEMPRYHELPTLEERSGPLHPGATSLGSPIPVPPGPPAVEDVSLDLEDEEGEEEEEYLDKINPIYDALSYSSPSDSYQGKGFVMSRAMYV
Procedure: After 200 μL of FCM buffer was added to each well and washed once by centrifugal operation, 50 μL each of Alexa488-labeled secondary antibody diluted in FCM buffer to 10 μg/mL was added to and mixed therewith, and the mixture was then reacted on ice for an hour. The Alexa488-labeled secondary antibody used was Alexa Fluor488 goat anti-human IgG (H+L) for the human antibodies and Alexa Fluor488 goat anti-rabbit IgG (H+L) (Invitrogen) for the rabbit antibody. The cells in each well were washed twice with FCM buffer and then resuspended in 250 μL of FCM buffer. Using the flow cytometer MPL500 (BECKMAN COULTER), the fluorescence intensity of stained cells was measured to determine the ratio of the median value of fluorescence intensities of the respective antibodies in the primary antibody group to the median value of fluorescence intensities in the negative control group.

median fluorescence ratio [1]: 44.2 ratio | median fluorescence ratio [2]: 51.5 ratio | median fluorescence ratio [3]: 38.7 ratio | median fluorescence ratio [4]: 43 ratio | median fluorescence ratio [5]: 14.8 ratio
B1: Nec1-554-1 (antibody, human IgG1, V domains shown)
VH: EVQLVESGGGLVKPGGSLRLSCAASGFTFSSYNMNWVRQAPGKGLEWVSSISSSSSYIYYADSVKGRFTISRDNAKNSLYLQMNSLRAEDTAVYYCARDYYGSGTYYLFDYWGQGTLVTVSS
VL: EIVLTQSPDFQSVTPKEKVTITCRASQSIGSSLHWYQQKPDQSPKLLIKYASQSFSGVPSRFSGSGSGTDFTLTINSLEAEDAAAYYCHQSRSLPITFGQGTRLEIK
notes: human IgG1/k; also called Nec1-554-1 SP3
binding result [6]: no binding (tested: ratio below 2 = no reactivity)
